Measured values as given in PMC10819093.

Experiments:
[1] = target: HIV-1 gp120 protein (surface plasmon resonance) (HIV-1); test: SPR; BIAcore 3000; HIV-1 proteins amine coupled to CM-5 chips (50 µg/mL in 20 mM sodium acetate); serially diluted antibody injected at 30 µL/minute for about 100 s in HBS (10 mM HEPES, 150 mM NaCl, 3 mM EDTA)
[2] = target: HIV-1 gp41 protein (surface plasmon resonance) (HIV-1); test: as above

Question: For “trispecific antibody iMab + PRO140 + PGT121”, which Kd [1] is on record?
Answer: 0.59 nM

Question: “trispecific antibody iMab + PRO140 + 10E8” was tested. Which Kd [2] did it give?
Answer: 6.12 nM

Question: “trispecific antibody iMab + PRO140 + PGDM1400” was tested. Which Kd [1] did it give?
Answer: 0.46 nM
